Data reported in the nanobody polyreactivity screen of Harvey et al. (2022).

Assay: yeast display, Sf9 membrane polyspecificity reagent, FACS + sequencing; frameworks hold sequencing errors
Outline: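 Nanobodies from a synthetic yeast display library (Saccharomyces cerevisiae BJ5465), induced 36–48 hours with galactose, were stained 1 hour at 4 °C with 10% biotinylated, detergent-solubilized Sf9 membrane reagent, enriched on streptavidin microbeads, then FACS-sorted. Anti-HA (expression) and streptavidin (reagent binding) fluorescence set low and high (top ~1%) gates. Polyreactivity labels come from the gate of origin. Genes were colony-PCR amplified, MiSeq 2 × 250 sequenced and filtered by CDR length.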

Sequence	polyreactivity (PSR sort gate)
QVQLVESGGGLVQAGGSLRLSCAASGFTFYYYAMGWYRQAPGKERELVAAINWDGRTYYADSVKGRFTISRDNAKNTVYLQMNTLKPEDTAVYYCAAGYYLLTYRYDYWGQGTQVTVSS	low polyreactivity
QVQLVESGGGLVQAGGSLRLSCAASGFTFGDYAMGWYRQAPRKERELVAAISKRGGRTFYADSVKGRFTISRDNAKNTVYLQMNSLKPEDTAVYYCAKAGSFDYDYWGQGTQVTVSS	high polyreactivity
QFQLVESGGGLVQAGGSLRLSCAASGRTFRYYAMGGYIQAPGKERELVGAITTGSSTYYADSVKGRFTISRDNAKNTVYLQMNSLKTEDTAVYYCHVFQGTRYGYWGQGTKVTVSS	low polyreactivity
QVQLVESGGGLVQAGGSLRLSCAASGITFYFYAMGWYRQAPWKERELVAAITSTGTSTYYADSVKGRFTISRDNAKNTVYLQMNILKPEDTAVYYCNVTDYHTLWYDPEYYWGQGTQVTVSS	low polyreactivity
QVQLVESGGGLVQAGGSLSLSCAASGFIFYGYAMGWYRQAPGKEREIVAAISGRGDRTYYADSVKGRFTISRDNAKNTVYLQMNSLNPEDTAVYYCAALQLRYSGALWYDYWGQGTQVTVSS	high polyreactivity
QVQLVESGGGLVQAGGSLRLSCAASGIIFWTYTMGWYRQAPGKERELVAAISSGGSTKYADSVKGRFTISRDNAKNTVYLQMNSLKPEDTAVYYCAAYSAWYGYDYWGQGTQVTVSS	low polyreactivity
QVQLVESGGGLVQAGGSLRLSCAASGSTFYIYAMGWYRQAPGKERELVAAITWRGGGTYYADSVKGRFTISRDNAKNTVYLEMNSLKPEDTAVYYCNADYPRSRGVKYDYWGQGTQVTVSS	high polyreactivity
QVKLVESVGGLVQAGGRLRLSCAASGSILYFNAMGWYRQAPGKERELVAAISKSGGRTYYADSVKGRFTISRDNAKNTVYLQMNCLKPEDTAVYYCAKDNYWGQGTQVTVSS	high polyreactivity
QVQLVESGGGLVQAGGSLRLSCAASGSNFAKNAMGWYRQAPGKEREMVAAITYSGGSTYYADSVKGRFTISRDNAKNTVYVQMNSLKPEDTAVYYCAADVWWSYYRYDYWGQGTQVTVSS	low polyreactivity
QVQLVESGGGLVQAGGSLRLSCAASGFIFGRYAMGWYRQAPGKERELVAVITWSGGRTYYADSVKGRFTISRDNAKNTVYLQMNSLKPEDTAVYDCAADRYPYHYGYDYWGQGTQVTVSS	high polyreactivity
QVHLVESGGGLVQAGGSLRLSCAASGFTFSSNAMGWYRQAPGKERELVADISFNSTSTYYADSVKGRFTISRDNAKNTVYLQMNSLKPEDTAVYYCAADVPRVQSEPEYDYWGQGTQVTVSS	low polyreactivity
QVQLVESGGGLVQAGGSLRLSCAASGFTFKKNAMGWYRQATGKERELVAAIRSGTSTKYADSVKGRFTISRDNAKNTVYLQMNSLKPEDTAVYYCAAEEPEYLATWRNRRYDYWGQGTQVTVSS	low polyreactivity
QVQLVESGGGLVQAGGSLRLSCAASGSTFDPNVMGWYRQAPGKERELVAGITWRGGRTYYADSVKGRFTISRDNAKNTVYLQMNSLKPEDTAVYYCNAEDWTRKYDYWGQGTQVTVSS	high polyreactivity
QVQLVESGGGLVQAGGSLRLSCAASGRTFQYYAMGWYRQAPGKEREFVAAISRSGGSTYYADSVKGRFTISRDNAKNTVYLQMNSLKPEDTAVYYCAADAYRSSYDYWGQGTQVTVSS	low polyreactivity
QVQLVESGGCLVQARGSLRLSCAASGFIFRSYAMGWYRPAPGKERELVAAISRSGGSTYYADSVKGRFTISRDNAKNTVYLQMNSLKPEDTAVYYCAAEYRIPYFFTYVYWGQGTKVTVSS	high polyreactivity
QFQLVESGGGLVQAGGSLRLSCAASGRTFPWYAMGWYRQEPGKDRELVAAISWTGGSTYYADSVKGRFTISRDNAKNTVYLQMNSLKPEDTAFYYCAASPWYLKYEYWGQGTQVTVSW	low polyreactivity
QVQLVESGGGLVQAGGSLRLSCAASGFIFVNYMGWYRQAPGKERELVAAISRGGSTNYADSVKGRFTISRDNAKNNVFLQMNSLKPEDTAVYYCAAETWYSGYTYDYWGQGTQVTVSS	low polyreactivity
QVQLVESGGGLVQAGGSLRLSCAASGRIFQVNAMGWYRQAPGKERELVAAITYSGGTTYYADSVKGRFTISRDNAKNNVYLQMNRLKPEYTAVYYCAAEGYGAQGDPWQYGYEYWGQGTKVTVSS	low polyreactivity
QVQLVESGGGLVQAGGSLRLSCAASGLIFVGYAMGWYRQSPGKERELVAAITSGGSTKYADSVKGRVTISRDNAKNTDYLQMNSLKPEDTAVYYCADSGCRNWWSARNYYWGQGTQVTVSS	low polyreactivity
QVQLVESAGGLVQAGGSLRLSSAASGIIFSEYAMGWYRPAPGKERELVAAISKSGGRTYYADSVKGRFTISGVNAKNTVDLQMNSLKPEDTAVYYCAARHAPILGDHGMKYWGQGTQVTVSS	high polyreactivity
QVQRVESGGGLVQAGGSLRLSSADSGSTLSGYAMGWYRQAPGKERELVATIRITGGRTYYADSVKGRFTISRDNAKNTVYLQMNSLKPEDTAVYYCNVRSRRRVSSYDYWGQGTQVTVSS	high polyreactivity
QVQLVESGGGLVQAGGSLRLSCAASGSTFTDYTMGWYRQAPGKERELVAVISQSGGSTYYADSVKGRFTISRDNAKNTVYLQMNSLKPEDTAVYYCAADPREDNQDRYYWGQGTQVTVSS	high polyreactivity

Sequence	polyreactivity (PSR sort gate)
QVQLVESGGGLVQAGGSLRLSCAASGRIFRGYAMGWYRQAPGKERELVAAISYSGGTTYYADSVKGRFTISRDNAKNTVYLQMNSLKPEDTAVYYCNVDADYESQWLSVGYDYWGQGTQVTVSS	low polyreactivity
QVQLVESGGGLVQAVGSLRLSCAASGFIFVRYAMGWYRQAPAKERELVAAISYSGGSTYYADSVKGRFTISRDNAKNTVYLQMNSLKPEDTAVYYCAAEYYSGGYRYYAEYGYWGQGTQVTVSS	high polyreactivity
QVQLVDSGGGLVQAGGRLRLSCAASGRTFRTNAMGWYRQAPGKERELVAAISRTGRTNYADSVKGRFTISRDNAKNTVYLQMNSLKPEDTAVYYCAADRVGWSGYRGDYWGQGTQVTVSS	high polyreactivity
QVQIVESGGGLVQAGGSLRLSCAASGFTIDQYAMGWYRQAPGKERELVAAISWRGGSTYYADSVKGRFTISRDNAKNTVYLQMNSLKPEDTAVYYCNGYSPYHAGVDYGYWGQGTQVTVSS	high polyreactivity
QVQLVESGGGLVQAGGSLRLSCAASGSIFNRNAMGWYRQAPGKERELVAVISWTGDGTYYADSVKGRFTISRDNAKNTVYLQMNSLKPEDTAVYYCAARWYVQFYHRPVSKRYYWGQGTQVTVSS	high polyreactivity
QVQLVESGGGLVQAGGSLRLSCAASGSIFPVNTMGWYRQAPGKERELVAAITQRGGRTYYADSVKGRFTISRDNAKNTVYLQMNSLKPEDTAVYYCNRDLGAGGYDYWGQGTQVTVSS	low polyreactivity
QVQLVESGGGLVQAGGSLRLSCAASGSIFVRNGMGWYRQAPGKERELVASITSGTITYYADSVKGRFTISRDNAKNTVYLQINSLKPEDTAVYYCNAGCRSSRFKRPYFRERNYWGQGTQVTVSS	high polyreactivity
QVQLVESGGGLVQAGGSLRLSCAASGSIFWWNTMGWYRQAPGTERELVAAITFSGGSTYYADSVKGRFTISRDNAKNTVYLQMNSLKPEDTAVYYCNADGWVSVRGTWSDGGYWGQGTQVTVSS	low polyreactivity
QVQLVESGGGLVQPGGSLRLSCAASGSTFLVYAMGWYRQAPGKERELVAVIDNGGDTYYADSVKGRFTISRDNAKNTVYLPMNSMKPEDTEVYYCAADLSYLGYCEYDYWGQGTQVNVSS	low polyreactivity
QVQLVESGGGLVQAGGSLRLSCAASGVIFYRYAMGWYRQAPGKERELVAAITRSGGTTYYADSVKGRFTISRDNAKNTVYLQMNSLKPEDTAVYYCAARVTPGRNGGGYWGQGTQVTVSS	high polyreactivity
QVQLLESGGGLVQAGGSLRLSCAASGFTFNPYAMGWYRQAPGKERELVARISRGTSTNYADSVKGRFTISRDNAKNTVYLQMNSLKPEDTAVYYCAASYGSFHTYLDYNYWGQGTQVTVSS	low polyreactivity
QVQLVESGGGLVQAGGSLRLSCAASGLTVGGNVMGWYRQAPGKERELVAAISRSGDRTYYADSVKGRFTISRDNAKNTVYLQMNSLKPEDTAVYYCAVRVLYRQVFRYDYWGQGTQVTVSS	high polyreactivity
QVQLVESGGGLVQAGGSLRLSCAASGSIFVYYSMGWYRQAPGKERELVATISSGASTYYADSVKGRFTISRDNAKNTVYLQMNSLKPEDTAVYYCNADNLAGSVEHDYWGQGTQVTVSS	low polyreactivity
QVQLVESGGGLVQAGGSLRLSCAASGLIFVGYAMGWYRQAPGKERELVAAITSGGSTKYADSVKGRFTISRDNAKNTVYLQMNSLKPEDTAVYYCAASGWRNWWSARNYYWGQGTLVTVSS	low polyreactivity
QVQLVETGGGLVQAGGSLRLSCAASGSISPINAMGWYRQPPGKERELVAAINGGGSTYYADSVKGRFTISRDNAKNTVYLQMNSLKPEDTAVYYCSRDALHYAGSLHRYGYWGQGTQVTLSS	low polyreactivity
QVQLVESGGGLDQAGGSLRLSCAASGSTLFPYAMGWYRQAPGKERELVAAISSRGGRTNYADSVKGRFTISRDNAKNTDYLQLYSLKPEDTAVYYCAAGDDYWGQGTEVTVSS	high polyreactivity
QVQLVESGGGLVQAGGSLRLSCAASGFTFYDNAMGWYRQAPGKERELVAAISSSGTRTYYADSVKGRFTISRDNAKNTVYLQMNSLKPEDTAVYYCAARGQAYSGDRMYYWGQGTQVTVSS	high polyreactivity
QVQLVESGGGVVQAGGSLRLSCAASGRTFLVTALGWYRQAPGKERELVAVITRGGSTNYADSVKGRFTISRDNAKNTVYLQMNSLKPEDTAVYYCAKQFSPYRSYGPVVRYDYWGQGTQVTVSS	low polyreactivity
QVQLVESGGGLVQAGGSLRLSCAASGITFSVNTMGWYRQAPGKERELVAAITSAGGTYYADSVKGRFTISRDNAKNTVYLQMNSQKPEDTAVYYCAAANFRSYLSQTGPRAYYYWGQGTQVTVSS	low polyreactivity
QVQLVETVGGLVQAGGSLRLSCAASGSTFYRYAMGWYRQAPGKERELVAAISSSGGSTYYADSVKGRFTISRDNAKNSVYLQMNSLKPEDSAVYYCNAARNFRYDYWGQGTQVTVSS	high polyreactivity
QVQLVESGGGVVQAGGILSLSCAASGFTFATYAMGWYRQAPGKERELVAGITRSGGSTYYADSVKGRFTNSRYNAKNTVYLQMNSLKPEDTAVYYCNKAYGGDKYSGTYDYWGQGTQVTVSS	high polyreactivity
